B1: 17-22-B03-sc08 (scFv)
scFv: MDIQMTQSPSSLSASVGDRVTITCQASQSISSYLAWYQQKPGKAPKLLIYKASTLASGVPSRFSGSGSGTDFTLTISSLQPEDFATYYCQCTYYEPSYVFRAFGGGTKLTVLGGGGGSGGGGSGGGGSGGGGSEVQLVESGGGLVQPGGSLRLSCKASGIDFSAGYDMCWVRQAPGKGLEWIACIDSRREESDYASWAKGRFTISKDSSKNTVYLQMNSLRAEDTAVYYCARGGYGGDGVDGAFDPWGQGTLVTVSS
notes: Humanized scFv, CDR-grafted light chain and structural-grafted heavy chain (CDR/STR); also called 17-22-B03-sc08 (CDR/STR); domain shuffled variant
B2: 17-22-B03-sc02 (scFv)
scFv: MDIQMTQSPSSLSASVGDRVTIKCQASQSISSYLAWYQQKPGKAPKLLIYKASTLASGVPSRFSGSGSGTEFTLTISDLEPADFATYYCQCTYYEPSYVFRAFGGGTKLTVLGGGGGSGGGGSGGGGSGGGGSEVQLVESGGGLVQPGGSLRLSCKASGIDFSAGYDMCWVRQAPGKGLEWIACIDSRREESDYASWAKGRFTISKDSSKNTVYLQMNSLRAEDTAVYYCARGGYGGDGVDGAFDPWGQGTLVTVSS
notes: Humanized scFv, structural graft (STR); also called 17-22-B03-sc02 (STR); structural graft
B3: 17-22-B03-sc12 (scFv)
scFv: MDIQMTQSPSSLSASVGDRVTITCQASQSISSYLAWYQQKPGKAPKLLIYKASTLASGVPSRFSGSGSGTDFTLTISSLQPEDFATYYCQSTYYEPSYVFRAFGGGTKLTVLGGGGGSGGGGSGGGGSGGGGSEVQLVESGGGLVQPGGSLRLSCKASGIDFSAGYDMCWVRQAPGKGLEWIACIDSRREESDYASWAKGRFTISKDSSKNTVYLQMNSLRAEDTAVYYCARGGYGGDGVDGAFDPWGQGTLVTVSS
notes: Humanized scFv, CDR(C90S)/STR design; also called 17-22-B03-sc12 (CDR(C90S)/STR)
B4: recombinant human TNFβ (ligand, UniProt P01374 35-205, looked up)
chain: LPGVGLTPSAAQTARQHPKMHLAHSTLKPAAHLIGDPSKQNSLLWRANTDRAFLQDGFSLSNNSLLVPTSGIYFVYSQVVFSGKAYSPKATSSPLYLAHEVQLFSSQYPFHVPLLSSQKMVYPGLQEPWLHSMYHGAAFQLTQGDQLSTHTDGIPHLVLSPSTVFFGAFAL

Columns and labels:
[1] = target: T1, recombinant human TNFα (human, UniProt P01375 77-233); test: cell-based or functional assay
T1 sequence (P01375 77-233 limits assumed): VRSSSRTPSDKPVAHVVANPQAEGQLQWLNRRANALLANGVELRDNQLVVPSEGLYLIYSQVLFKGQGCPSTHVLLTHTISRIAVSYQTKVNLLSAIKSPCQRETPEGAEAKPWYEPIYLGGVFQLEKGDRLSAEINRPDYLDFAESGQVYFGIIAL

[2] = target: T2, Rhesus monkey TNFα (Rhesus monkey (Macaca mulatta), UniProt P48094 77-233); test: cell-based or functional assay
T2 sequence (P48094 77-233 limits assumed): as the sequence (P01375 77-233 limits assumed) above, with R44T, T72N, R138L counted along it

[3] = target: T3, recombinant Cynomolgus monkey TNFα (Cynomolgus monkey (Macaca fascicularis), UniProt P79337 77-233); test: cell-based or functional assay
T3 sequence (P79337 77-233 limits assumed): as the sequence (P01375 77-233 limits assumed) above, with L37V, R44T, T72N, R138L counted along it

[4] = target: T1, recombinant human TNFα; test: inhibition ELISA, biotinylated human TNFα (960 pM) on coated TNFRI-Fc, scFv varied
Protocol: (§1) For the first inhibition ELISA, the extracellular domain of TNFRI fused to the Fc region of human IgG (R&D Systems, Cat. No. 372-RI) was coated on a 96-well Maxisorp ELISA at a concentration of 0.5 μg/mL. For the second inhibition ELISA, the extracellular domain of TNFRII fused to the Fc region of human IgG (R&D Systems, Cat. No. 726-R2) was coated at a concentration of 2 μg/mL. All subsequent steps were identical for both assays.

[5] = target: T1, recombinant human TNFα; test: SPR (MASS-1), TNFα immobilised by amine coupling, scFv injected 45 to 1.4 nM
Protocol: (§2) In a second step, for the best performing scFvs, Single Injection Cycle Kinetics (SiCK) were measured from a single injection cycle by simultaneously injecting six analyte samples at different concentrations into each of the eight parallel channels in the MASS-1 system. […] The apparent dissociation (kd) and association (kₐ) rate constants and the apparent dissociation equilibrium constant (KD) were calculated with the MASS-1 analysis software (Analyzer, Sierra Sensors) using one-to-one Langmuir binding model and quality of the fits was monitored based on Chi², which is a measure for the quality of the curve fitting. The smaller the value for the Chi² the more accurate is the fitting to the one-to-one Langmuir binding model. For affinity screenings, results were deemed valid if the Chi² was below 10 for the concentration analyzed. In cases where several scFv concentrations were analyzed, results were deemed valid if the average Chi^t over all the concentrations tested was below 10.

[6] = target: B4; test: competition ELISA, coated scFv, biotinylated TNFα, unlabeled TNFβ or TNFα as competitor
Protocol: (§3) For this purpose, the scFvs were coated on a 96-well Maxisorp ELISA plate at a concentration of 1 μg/mL. […] To control precision of the response, the dose-response curves were analyzed in duplicate.

[7] = target: T1, recombinant human TNFα; test: inhibition ELISA, biotinylated human TNFα (960 pM) on coated TNFRII-Fc, scFv varied
Protocol: as §1

[8] = target: T2, Rhesus monkey TNFα; test: SPR (MASS-1), TNFα immobilised by amine coupling, scFv injected 45 to 1.4 nM
Protocol: as §2

[9] = target: T3, recombinant Cynomolgus monkey TNFα; test: as above
Protocol: as §2

[10] = target: T2, Rhesus monkey TNFα; test: SPR, TNFα immobilised, scFv injected
[11] = target: T1, recombinant human TNFα; test: inhibition ELISA: biotinylated human TNFα pre-incubated with the scFv, binding to coated TNFRII-Fc detected with streptavidin-HRP [panel 17-22-B03-sc12]
Protocol: as §1

[12] = target: T1, recombinant human TNFα; test: inhibition ELISA: biotinylated human TNFα pre-incubated with the scFv, binding to coated TNFRI-Fc detected with streptavidin-HRP [panel 17-22-B03-sc12]
Protocol: as §1

[13] = target: B3; test: competition ELISA, coated scFv, biotinylated TNFα (75 ng/mL), unlabeled TNFβ varied
Protocol: as §3

[14] = target: B2; test: as above
Protocol: as §3

[15] = target: B1; test: as above
Protocol: as §3

Binder | Potency (L929 assay), rel. IC50 (IC50 Infliximab/IC50 scFv, ng/mL) [1] [ratio] | Potency (L929 assay), rel. IC90 (IC90 Infliximab/IC90 scFv, ng/mL) [1] [ratio] | Species-specificity IC50 [ng/mL], L929 assay, human TNFα [1] [ng/mL] | Species-specificity IC50 [ng/mL], L929 assay, rhesus TNFα [2] [ng/mL] | Species-specificity IC50 [ng/mL], L929 assay, cyno TNFα [3] [ng/mL] | IC50 [4] [µg/mL] | rel. IC50 (IC50 Infliximab/IC50 scFv), blocking of TNF-TNFRI interaction [4] [ratio] | rel. IC90 (IC90 Infliximab/IC90 scFv), blocking of TNF-TNFRI interaction [4] [ratio] | Kd [5] [nM] | koff [5] [s⁻¹] | kon [5] [M⁻¹ s⁻¹] | Target selectivity, rel. IC50 of TNFβ vs TNFα [6] [fold] | IC50 [7] [µg/mL] | rel. IC50 (IC50 Infliximab/IC50 scFv), blocking of TNF-TNFRII interaction [7] [ratio] | rel. IC90 (IC90 Infliximab/IC90 scFv), blocking of TNF-TNFRII interaction [7] [ratio] | Kd [8] [nM] | koff [8] [s⁻¹] | kon [8] [M⁻¹ s⁻¹] | Kd [9] [nM] | koff [9] [s⁻¹] | also measured
B1 | 26 | 26.6 | 0.4 | 0.4 | 0.5 | 0.0212 | 2.3 | 2.5 | 0.061 | 6.8e-05 | 1.1e+06 | > 10000 | 0.0353 | 2.8 | 2.7 | – | – | – | – | – | –
B2 | 23.7 | 29.4 | 0.5 | 0.3 | 0.6 | 0.0334 | 1.5 | 1.4 | 0.052 | 5.9e-05 | 1.1e+06 | > 10000 | 0.0711 | 1.4 | 1.8 | 0.15 | 0.00011 | 710000 | 0.05 | 6e-05 | kon [9]: 1.2e+06 M⁻¹ s⁻¹; fold difference in affinity against human TNFα [10]: ~3 fold
B3 | 13.4 | 11.7 | 0.6 | 0.9 | 0.8 | – | 1.5 | – | 0.048 | 4e-05 | 830000 | > 10000 | – | 2.1 | – | 0.24 | 0.0002 | 830000 | 0.07 | 5.2e-05 | kon [9]: 750000 M⁻¹ s⁻¹; IC50 (read off the curve) [11]: ~0.03 µg/mL; IC50 (read off the curve) [12]: ~0.03 µg/mL
B4 | – | – | – | – | – | – | – | – | – | – | – | – | – | – | – | – | – | – | – | – | IC50 [13]: > 1250 µg/mL; IC50 [14]: > 1250 µg/mL; IC50 [15]: > 1250 µg/mL

— patent publication US20200299375A1 (TILLOTTS PHARMA, published 2020)
